In patent US20120230990A1 (MERCK SERONO, published 2012):

What was measured:
mouse IL-22RA-ECD = target: T1, mouse IL-22RA-ECD (mouse, UniProt Q80XZ4 16-230); test: KinExA and Biacore, IL-22RA-ECD with 6 His tag
T1 construct: extracellular domain; Produced in HEK-293 cells and NiNTA-purified; not shown: 6 His tag
T1 sequence (looked up): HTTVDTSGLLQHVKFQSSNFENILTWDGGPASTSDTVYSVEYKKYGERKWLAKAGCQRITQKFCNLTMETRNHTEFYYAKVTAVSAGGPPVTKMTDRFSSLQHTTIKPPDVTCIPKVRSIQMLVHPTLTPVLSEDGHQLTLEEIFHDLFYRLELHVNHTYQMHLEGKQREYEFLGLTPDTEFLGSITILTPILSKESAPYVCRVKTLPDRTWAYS

[1] = target: T2, human IL-22 binding protein (human, UniProt Q969J5-2 22-231, limits assumed); test: competitive ELISA: biotinylated 280-346-TSY on plate-coated human IL-22RA-ECD, soluble competitor titrated, peroxidase-conjugated streptavidin, OD 450nm
T2 construct: also called hIL-22BP; IL-22BP
T2 sequence (looked up): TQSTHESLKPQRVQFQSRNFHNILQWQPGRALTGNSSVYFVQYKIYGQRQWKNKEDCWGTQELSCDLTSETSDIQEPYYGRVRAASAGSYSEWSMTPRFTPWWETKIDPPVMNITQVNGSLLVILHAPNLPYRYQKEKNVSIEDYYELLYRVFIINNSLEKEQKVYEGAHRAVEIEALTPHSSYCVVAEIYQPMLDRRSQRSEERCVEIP
Protocol: (§1) FIG. 23 reports the results of a competitive ELISA done to measure the specificity of 280.346.TSY to human IL-22RA. Microtiter plates were coated with human IL-22RA-ECD (i.e. IL-22RA-Extra Cellular Domain). Biotinylated 280-346-TSY antibody was added to the plate in the presence of competitors: human interleukin 22 receptor alpha (hIL-22RA), human IL-22 binding protein (hIL-22BP), murine IL-22 receptor alpha (mIL-22RA), human IL-10 receptor alpha (hIL-10R) and human IL-20 receptor alpha (hIL-20R).
(§2) Specificity and binding affinity of 280.346.TSY was determined using a competitive ELISA. Microtiter plates were coated with human IL-22RA-ECD (i.e. IL-22RA-Extra Cellular Domain). Biotinylated 280-346-TSY antibody was added to the plate in the presence of competitors: human interleukin 22 receptor alpha (hIL-22RA), human IL-22 binding protein (hIL-22BP), mouse IL-22 receptor alpha (mIL-22RA), human IL-10 receptor alpha (hIL-10R) and human IL-20 receptor alpha (hIL-20R).

[2] = target: T3, human IL-10 receptor alpha (human, UniProt Q13651 22-235, limits assumed); test: as above
T3 construct: also called hIL-10R; IL-10R alpha
T3 sequence (looked up): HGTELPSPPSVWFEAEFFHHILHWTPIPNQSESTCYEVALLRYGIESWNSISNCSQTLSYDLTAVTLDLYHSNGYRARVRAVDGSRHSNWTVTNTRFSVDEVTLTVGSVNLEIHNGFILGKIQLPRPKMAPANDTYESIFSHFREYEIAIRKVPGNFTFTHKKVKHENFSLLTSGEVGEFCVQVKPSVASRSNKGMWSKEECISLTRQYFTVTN
Protocol: as §1, §2

[3] = target: T4, human IL-20 receptor alpha (human, UniProt Q9UHF4 30-250, limits assumed); test: as above
T4 construct: also called hIL-20R; IL-20R alpha
T4 sequence (looked up): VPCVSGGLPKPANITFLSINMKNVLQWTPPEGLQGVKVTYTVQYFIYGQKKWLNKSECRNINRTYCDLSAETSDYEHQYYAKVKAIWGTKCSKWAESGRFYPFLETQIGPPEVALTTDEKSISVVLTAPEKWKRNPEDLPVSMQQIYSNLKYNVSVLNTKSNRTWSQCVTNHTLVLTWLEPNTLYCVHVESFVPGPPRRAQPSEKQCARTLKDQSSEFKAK
Protocol: as §1, §2

B1: 280.346.TSY (humanized anti-human IL-22RA antibody comprising 280.VH3-66-46 paired with 280.VK4-1-TSY, human IgG1/kappa) (antibody, V domains shown)
VH: EVQLVESGGGLVQPGGSLRLSCAASGYSITAEYMNWVRQAPGKGLEWIGEINPSTGTTTYNQKFKGRFTISVDQSKNTAYLQMNSLRAEDTAVYYCARFDAYFDYWGQGTLVTVSS
VL: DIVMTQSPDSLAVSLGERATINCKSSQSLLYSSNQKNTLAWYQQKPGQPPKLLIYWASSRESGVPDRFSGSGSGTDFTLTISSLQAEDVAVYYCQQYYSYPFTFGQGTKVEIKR
notes: Produced in CHO cells; also called 280.VH3-66-46/VK4-1-TSY; 280.VH3-66.46 paired with 280.IGKV4-1-TSY
- fold lower affinity compared to human IL-22RA (mouse IL-22RA-ECD): ~100 fold
- binding result [1]: no binding
- binding result [2]: no binding
- binding result [3]: no binding
